B1: Pistol ribozyme (parent)
chain: GGGUCGUUGUUCCAUAAUCGCGUGGAUAUGGCACGCAAGUUUCUACCGGGCACCGUAAAUGUCCGACUGGAGCCGUUCGGGCGGCUAUAAACAGACCUCAGGCCCGAAGCGUGGCGGCACCUGCCGCCGGUGGUAAAAAAGAUCGGAAGAGCACACGUCU

Variants of: B1
Experiment: aptazyme ON/OFF ratio, guanine; higher = stronger switching; co-transcriptional cleavage with and without guanine

| Variant | aptazyme ON/OFF ratio |
| --- | --- |
| U7A U8A G9C U11C C13G | 1.07 |
| U7A U8A G9C U11C C13A | 1.08 |
| U7A U8A G9C U11C C13U | 1.07 |
| U7A U8A G9C U10G U11A C12U | 1.03 |
| U7A U8A G9C U10G U11A C12G | 1.32 |
| U7A U8A G9U C12A | 1.19 |
| U7A U8A G9U C12U | 1.32 |
| U7A U8A G9U C12G | 1.45 |
| U7A U8A G9U U10A U11A C12A | 1.22 |
| U7A U8A G9U U10A U11A C12U | 1.34 |
| U7A U8A G9U U10A U11A C12G | 1.23 |
| U7A U8A G9C U10G U11G C12A C13U | 1.41 |
| U7A U8A G9C U10G U11G C12A C13G | 1.17 |
| U7A U8A G9C U10G U11G C12A C13A | 1.4 |
| U7A U8A G9C U10G U11G C12U C13A | 1.17 |
| U7A U8A G9C U10G U11G C12U C13U | 1.18 |
| U7A U8A G9C U10G U11G C12U C13G | 1.15 |
| U7A U8A G9C U11C C12G C13G | 1.07 |
| U7A U8A G9C U11C C12G C13U | 1.07 |
| U7A U8A G9C U11C C12G C13A | 1.06 |
| U7A U8A G9C U11A C12A C13U | 1.15 |
| U7A U8A G9C U11A C12A C13A | 1.08 |
| U7A U8A G9C U11A C12A C13G | 1.18 |
| U7A U8A G9U U10A U11A C12G C13G | 1.14 |

| Variant | aptazyme ON/OFF ratio |
| --- | --- |
| U7A U8A G9U U10A U11A C12G C13A | 1.15 |
| U7A U8A G9U U10A U11A C12G C13U | 1.04 |
| U7A U8A G9U U10A U11G C12G C13A | 1.23 |
| U7A U8A G9U U10A U11G C12G C13U | 1.36 |
| U7A U8A G9U U10A U11G C12G C13G | 1.23 |
| U7A U8A G9C U11C | 1.05 |
| U7A U8A G9C U11A | 1.25 |
| U7A U8A G9C U11G | 1.47 |
| U7A U8A G9C U10G U11C C12U C13U | 1.24 |
| U7A U8A G9C U10G U11C C12U C13A | 1.15 |
| U7A U8A G9C U10G U11C C12U C13G | 1.19 |
| U7A U8A G9C U11A C12U C13G | 1.14 |
| U7A U8A G9C U11A C12U C13U | 1.2 |
| U7A U8A G9C U11A C12U C13A | 1.1 |
| U7A U8A G9U U10A U11C C12G C13A | 1.18 |
| U7A U8A G9U U10A U11C C12G C13G | 1.15 |
| U7A U8A G9U U10A U11C C12G C13U | 1.18 |
| U7A U8A G9C U11G C12U C13U | 1.09 |
| U7A U8A G9C U11G C12U C13A | 1.37 |
| U7A U8A G9C U11G C12U C13G | 1.23 |
| U7A U8A G9C U11G C13U | 1.31 |
| U7A U8A G9C U11G C13A | 1.22 |
| U7A U8A G9C U11G C13G | 1.1 |
| U7A U8A G9U U10A U11C | 1.08 |

| Variant | aptazyme ON/OFF ratio |
| --- | --- |
| U7A U8A G9U U10A U11A | 1.44 |
| U7A U8A G9U U10A U11G | 1.38 |
| U7A U8A G9C U10G U11G C12G C13G | 1.13 |
| U7A U8A G9C U10G U11G C12G C13U | 1.21 |
| U7A U8A G9C U10G U11G C12G C13A | 1.2 |
| U7A U8A G9U U10A U11C C13U | 1.01 |
| U7A U8A G9U U10A U11C C13G | 1.1 |
| U7A U8A G9U U10A U11C C13A | 1.08 |
| U7A U8A G9C U11C C12U C13U | 1.08 |
| U7A U8A G9C U11C C12U C13A | 1.13 |
| U7A U8A G9C U11C C12U C13G | 1.11 |
| U7A U8A G9C U11G C12G | 1.4 |
| U7A U8A G9C U11G C12U | 1.71 |
| U7A U8A G9C U11G C12A | 1.1 |
| U7A U8A G9U | 2.12 |
| U7A U8A G9U U10A U11G C12A | 1.07 |
| U7A U8A G9U U10A U11G C12G | 1.19 |
| U7A U8A G9U U10A C12G | 1.41 |
| U7A U8A G9U U10A C12U | 1.16 |
| U7A U8A G9U U10A C12A | 1.27 |
| U7A U8A G9C U10G U11A C13A | 1.04 |
| U7A U8A G9C U10G U11A C13U | 1.04 |
| U7A U8A G9C U10G U11A C13G | 1.09 |
| U7A U8A G9C U10G U11G | 1.66 |

| Variant | aptazyme ON/OFF ratio |
| --- | --- |
| U7A U8A G9C U10G U11C | 1.1 |
| U7A U8A G9C U10G U11A C12U C13U | 1.1 |
| U7A U8A G9C U10G U11A C12U C13A | 1.11 |
| U7A U8A G9C U10G U11A C12U C13G | 1.13 |
| U7A U8A G9C U11A C12G C13A | 1.15 |
| U7A U8A G9C U11A C12G C13U | 1.21 |
| U7A U8A G9C U11A C12G C13G | 1.2 |
| U7A U8A G9U U10A C13G | 1.08 |
| U7A U8A G9U U10A C13U | 1.24 |
| U7A U8A G9U U10A C13A | 1.43 |
| U7A U8A G9C U11G C12A C13A | 1.17 |
| U7A U8A G9C U11G C12A C13U | 1.23 |
| U7A U8A G9C U11G C12A C13G | 1.22 |
| U7A U8A G9C U11A C12U | 1.2 |
| U7A U8A G9C U11A C12A | 1.22 |
| U7A U8A G9C U11A C12G | 1.19 |
| U7A U8A G9U U10A U11C C12A | 1.22 |
| U7A U8A G9U U10A U11C C12U | 1.1 |
| U7A U8A G9U U10A U11C C12G | 1.18 |
| U7A U8A G9C U11G C12G C13A | 1.31 |
| U7A U8A G9C U11G C12G C13G | 1.32 |
| U7A U8A G9C U11G C12G C13U | 1.16 |
| U7A U8A G9C U11C C12A C13A | 1.08 |
| U7A U8A G9C U11C C12A C13G | 1.07 |

| Variant | aptazyme ON/OFF ratio |
| --- | --- |
| U7A U8A G9C U11C C12A C13U | 1.05 |
| U7A U8A G9U C12G C13A | 1.19 |
| U7A U8A G9U C12G C13G | 1.27 |
| U7A U8A G9U C12G C13U | 1.47 |
| U7A U8A G9C U10G U11G C12U | 1.39 |
| U7A U8A G9C U10G U11G C12A | 1.76 |
| U7A U8A G9C U10G U11G C12G | 1.56 |
| U7A U8A G9U U10A U11A C12A C13U | 1.18 |
| U7A U8A G9U U10A U11A C12A C13G | 1.2 |
| U7A U8A G9U U10A U11A C12A C13A | 1.35 |
| U7A U8A G9C U11C C12A | 1.07 |
| U7A U8A G9C U11C C12U | 1.09 |
| U7A U8A G9C U11C C12G | 1.1 |
| U7A U8A G9C U10G U11C C12G C13G | 1.39 |
| U7A U8A G9C U10G U11C C12G C13A | 1.36 |
| U7A U8A G9C U10G U11C C12G C13U | 1.22 |
| U7A U8A G9U C12A C13A | 1.25 |
| U7A U8A G9U C12A C13G | 1.25 |
| U7A U8A G9U C12A C13U | 1.52 |
| U7A U8A G9U U10A C12A C13G | 1.24 |
| U7A U8A G9U U10A C12A C13A | 1.34 |
| U7A U8A G9U U10A C12A C13U | 1.15 |
| U7A U8A G9C U10G U11C C13U | 1.04 |
| U7A U8A G9C U10G U11C C13G | 1.04 |

| Variant | aptazyme ON/OFF ratio |
| --- | --- |
| U7A U8A G9C U10G U11C C13A | 1.09 |
| U7A U8A G9C U10G U11G C13G | 1.18 |
| U7A U8A G9C U10G U11G C13U | 1.48 |
| U7A U8A G9C U10G U11G C13A | 1.28 |
| U7A U8A G9U U10A U11A C12U C13A | 1.2 |
| U7A U8A G9U U10A U11A C12U C13G | 1.22 |
| U7A U8A G9U U10A U11A C12U C13U | 1.22 |
| U7A U8A G9U U10A C12U C13G | 1.23 |
| U7A U8A G9U U10A C12U C13U | 1.13 |
| U7A U8A G9U U10A C12U C13A | 1.05 |
| U7A U8A G9C U11A C13A | 1.21 |
| U7A U8A G9C U11A C13G | 1.06 |
| U7A U8A G9C U11A C13U | 1.17 |
| U7A U8A G9C U10G U11A C12A C13G | 1.12 |
| U7A U8A G9C U10G U11A C12A C13A | 1.17 |
| U7A U8A G9C U10G U11A C12A C13U | 1.2 |
| U7A U8A G9U U10A U11C C12A C13G | 1.08 |
| U7A U8A G9U U10A U11C C12A C13A | 1.11 |
| U7A U8A G9U U10A U11C C12A C13U | 1.14 |
| U7A U8A G9C U10G U11C C12U | 1.13 |
| U7A U8A G9C U10G U11C C12A | 1.81 |
| U7A U8A G9C U10G U11C C12G | 1.27 |
| U7A U8A G9C U10G U11C C12A C13G | 1.08 |
| U7A U8A G9C U10G U11C C12A C13U | 1.23 |

| Variant | aptazyme ON/OFF ratio |
| --- | --- |
| U7A U8A G9C U10G U11C C12A C13A | 1.19 |
| U7A U8A G9U U10A | 1.25 |
| U7A U8A G9U U10A U11A C13G | 1.07 |
| U7A U8A G9U U10A U11A C13U | 1.27 |
| U7A U8A G9U U10A U11A C13A | 1.23 |
| U7A U8A G9U C13A | 1.16 |
| U7A U8A G9U C13G | 1.05 |
| U7A U8A G9U C13U | 1.21 |
| U7A U8A G9C U10G U11A C12G C13G | 1.21 |
| U7A U8A G9C U10G U11A C12G C13U | 1.13 |
| U7A U8A G9C U10G U11A C12G C13A | 1.26 |
| U7A U8A G9U U10A U11G C12A C13U | 1.18 |
| U7A U8A G9U U10A U11G C12A C13G | 1.12 |
| U7A U8A G9U U10A U11G C12A C13A | 1.07 |
| U7A U8A G9U U10A C12G C13U | 1.3 |
| U7A U8A G9U U10A C12G C13A | 1.2 |
| U7A U8A G9U U10A C12G C13G | 1.18 |
| U7A U8A G9U C12U C13G | 1.16 |
| U7A U8A G9U C12U C13A | 1.34 |
| U7A U8A G9U C12U C13U | 1.22 |
| U7A U8A G9U U10A U11C C12U C13G | 1.05 |
| U7A U8A G9U U10A U11C C12U C13A | 1.06 |
| U7A U8A G9U U10A U11C C12U C13U | 1.21 |
